Results from article PMC6474815.

System: CC(=O)SCCNC(=O)CCNC(=O)[C@H](O)C(C)(C)COP(=O)(O)OP(=O)(O)OC[C@H]1O[C@@H](n2cnc3c(N)ncnc32)[C@H](O)[C@@H]1OP(=O)(O)O
Test: discontinuous colorimetric DTNB assay
Type: biochemical, Pseudomonas aeruginosa
Conditions: 5 mM polymyxin B constant, 50 mM Tris-HCl pH 8.0, 37 °C

## PA3944 (tagged) (Pseudomonas aeruginosa PAO1)
  Km: 118 ± 28 µM
  kcat: 0.602 s⁻¹
  kcat/Km: 5100 M⁻¹ s⁻¹

## PA3944 (cleaved) (Pseudomonas aeruginosa PAO1)
  Km: 137 ± 20 µM
  kcat: 0.61 s⁻¹
  kcat/Km: 4450 M⁻¹ s⁻¹
